This note sets out measurements from patent US20220204602A1 (University of Pennsylvania, published 2022).

B1: Cyno FcRn (receptor, Cynomolgus)
chain 1: AESHLSLLYHLTAVSSPAPGTPAFWVSGWLGPQQYLSYDSLRGQAEPCGAWVWENQVSWYWEKETTDLRIKEKLFLEAFKALGGKGPYTLQGLLGCELSPDNTSVPTAKFALNGEEFMNFDLKQGTWGGDWPEALAISQRWQQQDKAANKELTFLLFSCPHRLREHLERGRGNLEWKEPPSMRLKARPGNPGFSVLTCSAFSFYPPELQLRFLRNGMAAGTGQGDFGPNSDGSFHASSSLTVKSGDEHHYCCIVQHAGLAQPLRVELETPAKSS
chain 2: IQRTPKIQVYSRHPPENGKPNFLNCYVSGFHPSDIEVDLLKNGEKMGKVEHSDLSFSKDWSFYLLYYTEFTPNEKDEYACRVNHVTLSGPRTVKWDRDM
notes: also called Cynomolgus FcRn; purified Cyno FcRn
B2: anti-C5 mAb FMEH-IgG4PLA (antibody)
heavy: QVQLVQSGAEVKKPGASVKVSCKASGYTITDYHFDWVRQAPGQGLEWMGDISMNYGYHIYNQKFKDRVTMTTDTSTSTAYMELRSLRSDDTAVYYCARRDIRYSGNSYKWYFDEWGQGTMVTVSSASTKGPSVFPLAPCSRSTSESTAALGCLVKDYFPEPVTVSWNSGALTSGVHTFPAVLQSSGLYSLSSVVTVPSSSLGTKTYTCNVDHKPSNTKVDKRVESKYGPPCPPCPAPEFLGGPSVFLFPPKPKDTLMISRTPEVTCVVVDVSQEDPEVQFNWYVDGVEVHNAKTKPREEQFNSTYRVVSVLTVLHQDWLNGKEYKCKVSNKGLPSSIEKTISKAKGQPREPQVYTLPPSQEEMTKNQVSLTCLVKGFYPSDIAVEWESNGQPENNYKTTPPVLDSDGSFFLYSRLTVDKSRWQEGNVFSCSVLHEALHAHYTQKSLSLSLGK
light: DIQLTQSPSFLSASVGDRVTITCRTSKSISKHLAWYQQKPGKAPKLLIYSGSTLQSGVPSRFSGSGSGTEFTLTISSLQPEDFATYYCQQHNEYPYTFGQGTKLEIK
notes: also called FMEH PLA; FMEH-PLA; not shown: human light chain constant region

Assay [1] concerns the target T1, anti-C5 mAb/FH SCR1-5 fusion protein FMEH-IgG4PLA-FH1-5 (human, UniProt P08603 19-322, limits assumed).
T1 construct: domain: SCR 1-5; also called FMEH-FH1-5; FMEH-IgG4PLA-FH SCR1-5; not shown: human light chain constant region
The assay can be described thus: SPR (Biacore-3000), Cyno FcRn amine-coupled on CM5 chip (200 RU), fusion protein as analyte, pH 6.0, bivalent binding model. Background: In SPR one partner is held on a chip, and binding of the other changes the refractive index at the surface.

The assay “Cyno FcRn” has as its target B1. The assay can be described thus: SPR (Biacore-3000), Cyno FcRn amine-coupled on CM5 chip (200 RU), antibody as analyte, pH 6.0, bivalent binding model.
Procedure: Purified Cyno FcRn was coupled onto CM5 chip using the amine coupling method(200RU). Biacore analysis was performed on a Biacore-3000 instrument. The chip was regenerated between each binding using 7.4 pH Buffer.
Affinity analysis of FMEH-IgG4PLA and FMEH-IgG4PLA-FH1-5 to human or Cynomolgus FcRn: Surface Plasmon resonance analysis was used to measure the association and dissociation rate constant for binding of FMEH-IgG4PLA and FMEH-IgG4PLA-FH1-5 to immobilized human or Cyno FcRn, using BIAcore 3000 instrument (Biacore AB, Uppsala, Sweden) and all Biacore experiments were performed at 25° C. The carboxylated dextran matrix of a CM5 sensor chip was used to couple the purified human or Cyno FcRn, by amine coupling chemistry to obtain 280 RU or 200 RU surface density, respectively. […] The data were analyzed by the BIA evaluation software 3.2 assuming bivalent binding model.
For the next assay, the target named is T2, human FcRn (human, UniProt P55899 24-297; P61769 21-119, limits assumed).
T2 construct: also called purified human FcRn
The assay can be described thus: SPR (Biacore-3000), human FcRn amine-coupled on CM5 chip (280 RU), antibody as analyte, pH 6.0, bivalent binding model.

T1 sequence (P08603 other isoform, or with tags, fused parts or gaps limits assumed): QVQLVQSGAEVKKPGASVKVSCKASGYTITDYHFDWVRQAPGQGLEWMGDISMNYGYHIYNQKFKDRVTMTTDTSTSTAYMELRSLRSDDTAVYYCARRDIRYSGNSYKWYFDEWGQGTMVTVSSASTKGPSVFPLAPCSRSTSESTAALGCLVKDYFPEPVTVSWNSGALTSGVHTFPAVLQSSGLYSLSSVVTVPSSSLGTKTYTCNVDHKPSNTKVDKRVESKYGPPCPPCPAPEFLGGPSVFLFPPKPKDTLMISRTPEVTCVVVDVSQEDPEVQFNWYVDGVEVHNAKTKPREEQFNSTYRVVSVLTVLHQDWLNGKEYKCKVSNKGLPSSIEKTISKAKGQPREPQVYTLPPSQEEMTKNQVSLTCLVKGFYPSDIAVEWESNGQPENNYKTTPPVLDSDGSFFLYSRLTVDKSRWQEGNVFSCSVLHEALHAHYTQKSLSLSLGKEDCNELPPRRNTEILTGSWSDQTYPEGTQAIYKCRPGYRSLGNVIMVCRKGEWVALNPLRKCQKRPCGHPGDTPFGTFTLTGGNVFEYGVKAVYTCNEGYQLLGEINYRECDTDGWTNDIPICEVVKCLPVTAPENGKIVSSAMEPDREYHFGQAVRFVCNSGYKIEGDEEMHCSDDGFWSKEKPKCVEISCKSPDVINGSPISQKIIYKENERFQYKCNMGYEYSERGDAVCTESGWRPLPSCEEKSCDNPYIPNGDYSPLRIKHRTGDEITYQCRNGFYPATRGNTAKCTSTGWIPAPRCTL
T2 sequence (P61769 21-119 limits assumed, form in doubt, one chain of several): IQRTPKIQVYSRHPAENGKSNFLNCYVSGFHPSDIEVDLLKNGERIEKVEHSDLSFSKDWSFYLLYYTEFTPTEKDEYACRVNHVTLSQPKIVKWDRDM
Procedure for human FcRn: Biacore analysis was performed on a Biacore-3000 instrument. The chip was regenerated between each binding using 7.4 pH Buffer.
The carboxylated dextran matrix of a CM5 sensor chip was used to couple the purified human or Cyno FcRn, by amine coupling chemistry to obtain 280 RU or 200 RU surface density, respectively. […] The data were analyzed by the BIA evaluation software 3.2 assuming bivalent binding model.

As to B1, the Kd in assay [1] is 39.1 nM.

Consider B2, for which the Kd in the assay with Cyno FcRn is 14 nM; in the assay with human FcRn it was 6.47 nM.
